Data taken from the nanobody polyreactivity screen of Harvey et al. (2022).

Assay: yeast display, Sf9 membrane polyspecificity reagent, FACS + sequencing; frameworks hold sequencing errors
Outline: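 Nanobodies came from a synthetic yeast display library in Saccharomyces cerevisiae BJ5465, induced with galactose for 36–48 hours and stained for 1 hour at 4 °C with 10% biotinylated, detergent-solubilized Sf9 membrane reagent. Cells were enriched on streptavidin microbeads and then FACS-sorted, with low and high (top ~1%) gates set on anti-HA fluorescence for expression and streptavidin fluorescence for reagent binding. Each polyreactivity label reflects the gate a clone came from. Genes were amplified by colony PCR, sequenced by MiSeq 2 × 250 and filtered by CDR length.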

| Sequence | polyreactivity (PSR sort gate) |
| --- | --- |
| QVQLVESGGGLVQAGGSLRLSCAASGSIFTHYAMGWYRQAPGTERELVAGITSSGGSTYADSVKGRFTISRDNAKNTVYLQMNSLKPEDTAVYYCAAEQLRSRLIEYDYWRQGTQVTVSS | low polyreactivity |
| QVQLVESGGGLVQAGGSLRLSCAAYGRIFAPNAMGWYRQAPGKERELVATISWSGGSTYYADSVNGRFTISRDNSKNYVYLQMNSLKPEDTAVYYCAGSNYQYGVISYDYWGKGTQVTVSS | low polyreactivity |
| QVQHVESGGGLVQAGGSLRLSCSASGRTFSSYVMGWYRQAPGKERELVATITSGGITYYADSVKGRFTISRDNAKNTVYLQMNSLKPEDTAVYYCARAPPGDRFVRYDYWGQGTQVTVSS | high polyreactivity |
| QVQLVESGGGLVQAGGSLRLSCAASGDIFDAYAMGWYRQAPGKERELVAAISRSGGSTYYADSVKGRFTISRDNAKNTVYLQMNSLKPEDTAVYYCATRFSRRYVRYDYWGQGTQVTVSS | high polyreactivity |
| QVQLVESGGGLVQAGGSLRLSCAASGSTFDYYVMGWYRQAPGKERELVASISSGGSTYYADSVKGRFTISRDNAKNTVYLQMNSLKPEDTAVYYCAARYYGRVGGYSIGYNYWGQGTQVTVSS | high polyreactivity |
| QVQLVESGGGLVQAGGSLRLSCAASGNTFYAYAMGWYRQAPGKERELVAAIARGGNTYYADSVKGRFTISRDNAKNTVYLQMNSLKPEDTAVYYCHAYYPIRSSPYGYYYWGQGTQVTVSS | high polyreactivity |
| QVQLVESGGGLVQAGGSLRLSCAASGSIFEYYTMGWYRQAPGKERELVATISRSADRTYYADSVKGRFTISRDNAKNTVYLQMNSLKPEDTAVDYCAKRYPRTTQWIYDYWGQGTQVTVSS | high polyreactivity |
| QVQLVESGGGLVQAGGRLRLSCAASGSIFSYYAMGWYRQAPGKERELVAAITANGGSTYYADSVKGRFTISRDNAKNTVYLQMNSLKPADTAVYYCAADYYWGYDCGQGTQVTVSS | low polyreactivity |
| QVQLVESGGGLVQAGGSLRLSCAASGRTFTGNALGWYRQAPGKERELVAAISQRGGRTNYADSVKGRFTISRDNAKNTVYLQMNSLKPEDTAVYYCAADLGYYYFFGSNYAYDYWGQGTQVNVSS | low polyreactivity |
| QVQLVESGGGLVQAGGSLRLSCAASGRTFVDYAMGWYRQAPGKERELVAAINTGGRTKYADSVKGRFTISRDNAKITVYLQMNSLKPEDTAVYYCAARKQYGGVRGDYWGQGTQVTVSS | high polyreactivity |
| QVQLVESGGGLVQAGGSLRLSCADSGLIFGYYAMGGYRQAPGKERELVAAITSSGTSTYYADSVKGRFTISRDNAKNTVYLQMNSLKPEDTAVYYCAAQYIGKKRFNYWGQGTQVTVSS | high polyreactivity |
| QVQLVESGGGLVQAGGSLRLSCAASGSTLAVYAMGSYRQAPGKERELVAAISKRGGTTYYADSVKGRFTISRDNAKNTVYLQMYSLKPDDTAVYYCARESYYRGNYDYDYWGQGTQVTVSS | high polyreactivity |
| QVQLVESGGGLVQAGGSLRLSCAASGFIFYYYAMGWYRQAPGKERELVAAISWSGGITYYADSVKGRFTISRDNAKNTVYLQMNSLKPEDTAVYYCNAVSSGDMDYWGQGTQVTVSS | high polyreactivity |
| QVQVVESGGGLVQAGGSLRLSCAASGRIFNYYAMGWYRPAPGKERELVATITGGGRTYYADSVKGRFTISRDNGMKTVYLQMNSLKPEDSAVYYCAAQYGGLSYRYDYWGQGTQVTVSS | high polyreactivity |
| QVQLVESGGGLVQAGGSLRLSCAASGSTFYPYAMGWYRQAPGKEWEFVADITKRGGSTYYADSVKGRFTISRDNAKNTVYLQMNSLKPEDTAVYYCNAYNYDLVYPQYDYWGQGTQVTVSS | low polyreactivity |
| QVQHVESGGGLVQAGGSLLLSCAASGSIFYLYAMGWYRQEPGKERELVATMSSSGGSTYYADSVKGRFTISRDNAKNTVYLQMNSLKPEDTAVYYCNADYIYYGTTYEYWGQGTQVTVSS | low polyreactivity |
| QVQLVESGGGLVQAGGSLRLSCAASGSTSVDYTMGWSRQAPGKERELVAAIDYNGDSTYYADSVKGRFTISRDNAKITVYLQMNRLKPEDTAVYYCADDVWTLDPDEYDYWGQGTQVTVSS | low polyreactivity |
| QVQLVESGGGLVQAGGSLRISCAASGRIFQYYSMGWYRQAPGKERELLAAMSSRGGSTTYADSVKGRFTISRDNAKNTVYLQMNRLKPEDTAVYYCASDWYYYPQYRQRYYYWGQGTQVTVSS | high polyreactivity |
| QVQLVESGGGLVQAGGSLRLSCAASGSIFVSYAMGWYRQAPGKERELVAAITSAGTTYYADSVKGRFTISRDNAKNTVYLQMNSLKPEDTAVYYCNADTYGYYLWTGAVSAGDDYWGQGTQVTVSS | low polyreactivity |
| QVQLVESGGGLVQAGGSLRLSCAACGSIFYGNAMGWDRQAPGKVRELVAAITQGATSTYYADSVKGRFTISRDNAKNTVDLQMNSLKPEDTAVYYCAAVLAWRYTYYYWGQGTQVTVSS | high polyreactivity |
| QVQLVDSGGGLVQAGGSLRLSCAASGRTIGFYAMGWYRQAPGKERELVAAINRSGDSTYYADSVKGRFTISRDNAKNTVYLQMNSLKPEDTAVYYCAASYGYRYEYWGQGTQVTVSS | high polyreactivity |
| QVQLVESGGGLVQAGGSLRLSCAASGNIFSVYAMGWYRKAPGKERELVAAISSSGGRTYYADSVKGRFTISRDNEKNTVYLHMNSLKPEDTAVYYCAARSYTGQFVYWGQGTQVTVSS | high polyreactivity |

| Sequence | polyreactivity (PSR sort gate) |
| --- | --- |
| QVQLVESGGGLVQAGGSLRLSCAASRIFRGYAMGWYRQAPGKERELVAAIRRGGSTNYADSVKGRFTIARDNAKNTVYLQMNSLKPEDTAVYYCNAYLYFPRYDYWGQGTQVTVSS | high polyreactivity |
| QVQLVESGGGLVQAGGSLRLSCAASGLTFHYYDMGWYRQAPGKERELVAAISTGGGTYYADSVKGRFTISRDNAKNTVYLQMNSLKPEDTAVYYCAAETQHSYFVFSYYWGQGTQVTVSS | high polyreactivity |
| QVQLVESGGGLVQAGGSLRLSCAASGNIFKYYTMGWYRQAPGKERELVAAITSGGRTNYADSVKGRFTISRDNAKNTVYLQMNSLKPEDTAVYYCAAYDVIYSQGFDYWGQGTQVTVSS | low polyreactivity |
| QVQLLESGGGLVPSGGSLRLSCAASGLTLYTYAMGWYRQAPGKERELVAAISKNGGRTYYADSVKGRFTISRDNAKITVYLQMNSLKPEDTAVYYCADRARVGTVTFDYWGQGTQVTVSS | low polyreactivity |
| QVQLVESGGGLVQAGGSLRLSCAASGLTFYYNAMGSYRQAPGKERELVAAISRSAGSTYYADSVKGRFTISRDNAKNTVYLQMHSLKPEDTAVYYCAVGYVYTRKGRVQPVKYDYWGQGTQVTVSS | high polyreactivity |
| QVQLVESGGGLVQAGGSLRLSCADSGRIIYLNAMGLYRQAPGKERELVAAITRSAASTHYADSVKGRFTISRDNAKNTVYLQMNSLKPEDTAVYYCNARGYPKSWRYSRGYEYWGQGTQVTVSS | low polyreactivity |
| QVQLVETGGGLVQAGGSLRLSCAASGRTFTRYAMGWYRQAPGKERELVAAISSSGASTYYADSVKGRFTISRDNAKNTVYLQMNSLKPEDTAVYYCAAKQTRPSGFGYWGQGTQVTVSS | high polyreactivity |
| QVQLVESGGGLVQAGGSLGLSCAASGSTFQFYAMGWNRQAPGKERELVAAISWSSGSTYYADSVKGRFTISRDNAKNSVYLQMNSLKPEHTAVYYCNARYPWSYRYWDGGYWGQGTQVTVSS | low polyreactivity |
| QVQLVESGGGLVQAGGSLRLSCAASGTTFVKNDMGWYRQAPGKERELVAAISGGSTNYADSVKGRFTISRDNAKNTVYLQMNSLKPEDTAVYYCAAVQWYTSIEGIQPYYYWGQGTQVTVSS | low polyreactivity |
| QVQLQESGGGLVQAGGSLRLSGAASGSISSRDAMGWYRQAPGKEREFVATIASGTTTYYADSVKGSFTISRDNAENTVYLQTNSLKPEDTAVYYCAAPTIQIYPFYYWGQGTQVTVSS | high polyreactivity |
| QVQLVESGGGLVQAGGSLRLSCAASGFTSGNYAMGWYRQAPGKERELVAAIDSDGSTYYADSVKGRFTISRDNAKNTVYLQMKSLKPEDTAVYYCNKDIKSATDSYHYEDDYWGQGTQVTVSS | low polyreactivity |
| QVQLVESGGGLVQAGGSLRLSCAASGLTFYAYAMGWYRQAPGKERELVAAISWTGGRTYYADSVKGRFTISRDNAKNTVYLQMNSLKPEDTAVYYCAAEVFTTGSFRRYDYWGQGTQVTVSS | high polyreactivity |
| QVQLVESGGGLVQAGGSLRLSCAASGITLYGYVMGWYRQAPGKERELVAAISASGGRTHYADSVKGRFTISRDNAKNTVYLQMNSLKPEDTAVYYCARAGSRSPGGYDYWGQGTQVTVSS | high polyreactivity |
| QVQLVESGGGLVQAGGSLRLSCAASGYARGWYRQAPGKERELVAAITSGGSTNYADSVKGRFTISRDNAKNTVYLQMNSLKPEDTAVYYCAAAYSLYGHRYDYWGQGTQVTVSS | low polyreactivity |
| QVQLVESGGGLVQAGGSLRLSCADSGRIFYSYTRGWYRPAPGKERELVAAIRKSGGRTYYADSVKGRFTISRDNAKNTVYLQMNSLKPEDTAVYYCATTNYELSYYYWGQGTQVTVSS | high polyreactivity |
| QVQLVESGGGLVQAGGSLRLSCAASGSISDTYGMGWYRQAPGKERELVASITWSSGSTDYADSVKGRFTISRDNAKNTVYLQMNSLKPAETAVYYCATYEPFYSFIFRGIYDYWGQGTQVTVSS | low polyreactivity |
| QVQLVESGGGLVQAGGSLRLSCAASGFTFGVYAMGWYRQAPGKERELVAAITRSGSSTYYADSVKGRFTISRDNAKNTVYLQMNSLKPEDTAVYYCNKYKYVSAVQWKVAGDYWGQGTQVTVSS | low polyreactivity |
| QVQLGESGRGLVQEGGSLGLICAASGGIFKYNAMGWYRQAPGKERELVAAIRSTGSTYADSVKGRFTISRDNAKNTVYLQMNSLKPEDTAVYYCAAQYWRRKKYYYWGQGTQVTVSS | high polyreactivity |
| QVQLVESGGGLVQAGGSLRLSCAASGYIFKYYAMGWYRQAPGKERELVATINYSGGGTYYADSVKGRFTISRDNAKNTVYLQMNRLKPEDTAVYYCAAREKYISYSYYYWGQCTQVTVSS | high polyreactivity |
| QVQLVESGGGLFQAGGSLRLSCAASGGIFYGNVMGWYRQAPGKERELVADITSVGSTYYADSVKGRFTISRDNAKNTVYLQMNSLIPEDTAVYYCAAEPDHVADSHSGYDYWGQGTQVTVSS | low polyreactivity |
| QVQLVESGGGLVQAGGSLRLSCAASGRTFIGNAMGWSRQAPGKERELVAGIDSDGSTNYADSVKGRFTISRDNAKNTVYLQMNSLKPEDTAVYYCAAVQGYRFYEYYYWGQGTQVTVSS | low polyreactivity |
